Entries after “also recorded” stand apart in the source; their conditions may differ. No end group written: not given here.
How the values were obtained:
[1] = DLS temperature sweep in PBS: hydrodynamic diameter (DH), transition temperature (Ttr), solubility/aggregation; type: physicochemical; conditions: for Ttr: drug conjugate polymers; for Ttr / DH^20° C. / DH^37° C.: PBS at 0.5 mg/mL; for DH^20° C.: hydrodynamic diameter at 20° C.; for DH^37° C.: hydrodynamic diameter at 37° C.
Excerpt: Temperature-responsive: Refers to changes in properties of a material with changes in temperature. A material may be described as temperature-responsive if the properties of the material change with respect to changes in temperature. Temperature-responsive polymers are polymers that experience a change in physical properties in response to temperature, such as a change in solubility with changes temperature, which may be described by a lower critical solution temperature (LCST) or upper critical solution temperature (UCST). Preferred embodiments of the temperature-responsive polymers described herein have reduced solubility at elevated temperatures, which may be described by an LCST or transition temperature (Ttr), if the LCST is unknown. Transitions temperatures described herein are experimentally determined by dynamic light scattering or by turbidity, wherein particle size (or light scattering intensity) or absorbance are plotted against temperature to produce a sigmoidal curve. The transition temperature as used herein is the temperature (value on the x-axis) at which the y-value is 50% the maximum value of the sigmoidal curve. Temperature-responsive monomers are monomers that form temperature-responsive polymers. […] Note: temperature-responsive monomers are defined herein as a type of hydrophobic monomer that is hydrophobic at certain temperatures.
Hydrodynamic behavior, thermo-responsiveness, and solubility under aqueous conditions. Prepared polymers and control materials were characterized for nanoparticle hydrodynamic diameter by dynamic light scattering (DLS), thermo-responsivity and overall solubility in PBS.

[2] = polymers of temperature-responsive monomers; cited from earlier work
[3] = intravitreal injection; cited from earlier work
[4] = tested on: NF-κB; assay: Innate immune stimulation: NF-κB activation in THP1 NF-κB SEAP reporter monocytes; type: cell-based, human; conditions: polymer up to 20 mg/mL in culture medium
[5] = tested on: human monocyte cells (THP1); conditions: 100 μM
Method: The cellular viability of retinal pigmented epithelial like cells (ARPE19) and monocyte like cells (THP1) were assessed following exposure to thermo-responsive polymer at physiologically relevant concentrations.
THP1 cells were grown in vitro in cell growth medium and exposed to thermo-responsive polymer micelle that was resuspended in cell growth medium at the concentrations specified up to 20 mg/mL. […] Cell viability was assessed using Promega CellTiter 96® Non-Radioactive Cell Proliferation Assay (MTT).

[6] = Concentration-dependent hydrodynamic behavior by DLS in PBS (0.8 to 200 mg/mL, 20-37° C.); conditions: result in words; 5 mg/mL vs 200 mg/mL in PBS
Method: Unless otherwise indicated, the hydrodynamic diameter (DH), also referred to as simply the diameter or as the number average diameter or number mean diameter, of the polymers and copolymers were measured using dynamic light scattering (DLS) at a scattering angle θ=90° using a Zetasizer Ultra (Malvern Panalytical, Malvern, England) equipped with a 633 nm laser, capillary cell (ZSU1002) and ZS Xplorer software. […] For measurements presented, number mean diameter was used for assessment. […] For transition temperature (Ttr) characterization, DLS measurements were performed for temperature sweeps over a maximum range of 4-50° C. at a concentration of 0.5 mg/mL, 5 mg/mL or 200 mg/mL in PBS (150 mM NaCl, pH 7.4). At each step, measurements were performed after reaching steady-state temperature conditions. Characterization of the polymer chain conformational changes was evaluated from the temperature dependence of the hydrodynamic diameter (DH); the Ttr value was determined from the intersection point of two lines formed by the linear regression of a lower horizontal asymptote and a vertical section of the S-shaped curve (sigmoidal curve) fit.

| Molecule | Ttr [1] | DH^20° C. [1] | DH^37° C. [1] | also measured |
| --- | --- | --- | --- | --- |
| CN-p[(NIPMAM)f1-co-(BnMAM)f2]-b-p(HPMA)a-PEG4-Ova [Compound 293] | 29 °C | 5.7 nm | 41.1 nm |  |
| P(Val-Pro-Gly-Val-Gly)(SEQ ID NO: 3) (VPGVG; also: polymer of peptide-derived monomer) |  |  |  | LCST or Ttr [2]: 27 °C |
| Val-Pro-Gly-Val-Gly (SEQ ID NO: 3) derived polymethacrylate: polymethacrylate derived from the pentapeptide, Class IV of Table 1 (VPGVG; also: polymethacrylate backbone with pendant peptide) |  |  |  | LCST or Ttr [2]: 15-55 °C |
| Ranibizumab: Fab molecule used for intravitreal injections |  |  |  | vitreal half-life [3]: 76.8 h |
| CCCCc1nc2c(N)nc3ccccc3c2n1CCCCN [Compound 34, 1-(4-aminobutyl)-2-butyl-1H-imidazo[4,5-c]quinolin-4-amine] |  |  |  | NF-κB activation [4]: strong NF-κB response; viability of THP1 cells [5]: 10-20% |
| CN-p[(NIPMAM)f1-co-(BnMAM)f2]-b-p(HPMA)a-pip-diABZI [Compound 290] | 31 °C | 15.3 nm | 25.3 nm |  |
| CN-p[(NIPMAM)f1-co-(BnMAM)f2]-b-p(HPMA)a-PEG4-Ova [Compound 291] | 28 °C | 7.4 nm | 40.4 nm | concentration-responsive micellization [6]: retain concentration responsive micellization properties; also recorded: similarly demonstrated; thermo-responsive and micelle-forming behavior ([1]; result in words, DLS in PBS): retains temperature responsiveness |
| CN-p[(NIPMAM)f1-co-(BnMAM)f2]-b-p(HPMA)a-PEG4-Ova [Compound 292] | 32 °C | 6.1 nm | 36.5 nm |  |
